Test results taken from publication PMC6414729.

How the values were obtained:
[1] = compound: CB-PB phycobilisome (truncated phycobilisome of the CB mutant of Synechocystis PCC 6803) (Synechocystis PCC 6803) (UniProt Q01951); test: ABEL trap single-molecule fluorescence spectroscopy; pre-activated and pre-bound OCP + CB-PB (40:1) diluted to ~10 pM in 0.8 M phosphate buffer pH 7.5 with 1 M sucrose; single complexes in free solution; followed up to 5 h after dilution
[2] = substrate: CB-PB phycobilisome (truncated phycobilisome of the CB mutant of Synechocystis PCC 6803) (Synechocystis PCC 6803) (UniProt Q01951); test: bulk fluorescence quenching (emission spectrum and lifetime decay); OCP:CB-PB 40:1 in 0.8 M phosphate buffer, illuminated with white light 10 min at 23 °C; bulk sample ~25 nM
[3] = substrate: CB-PB phycobilisome (truncated phycobilisome of the CB mutant of Synechocystis PCC 6803) (Synechocystis PCC 6803) (UniProt Q01951)
[4] = substrate: CB-PB phycobilisome (truncated phycobilisome of the CB mutant of Synechocystis PCC 6803) (Synechocystis PCC 6803) (UniProt Q01951); remark: listed apart in the source

B1: Orange Carotenoid Protein, photoactivated red form (OCP^R) (natural protein)
chain: MPFTIDSARGIFPNTLAADVVPATIARFSQLNAEDQLALIWFAYLEMGKTLTIAAPGAASMQLAENALKEIQAMGPLQQTQAMCDLANRADTPLCRTYASWSPNIKLGFWYRLGELMEQGFVAPIPAGYQLSANANAVLATIQGLESGQQITVLRNAVVDMGFTAGKDGKRIAEPVVPPQDTASRTKVSIEGVTNATVLNYMDNLNANDFDTLIELFTSDGALQPPFQRPIVGKENVLRFFREECQNLKLIPERGVTEPAEDGFTQIKVTGKVQTPWFGGNVGMNIAWRFLLNPEGKIFFVAIDLLASPKELLNFA
- stoichiometry N [1]: 2
- percent of complexes quenched [2]: > 95%
- bulk fluorescence emission of fully quenched OCP + CB-PB (40:1) relative to unquenched CB-PB [3]: 9%
- bulk fluorescence lifetime, shorter component of the quenched OCP + CB-PB complex (unquenched 1.6 ns) [3]: 0.1 ns
- brightness of quenched state Q1 relative to unquenched CB-PB [4]: 11%
- brightness of quenched state Q2 relative to unquenched CB-PB [4]: 6%
